Measurements: paper PMC11277499, “Structural Basis for the Interaction between the Ezrin FERM-Domain and Human Aquaporins” (International Journal of Molecular Sciences, 2024)
Residues, ends and D or L forms follow the SMILES beside them.

B1: AQP5 C-terminal tail (residues 228-265) (peptide, UniProt P55064 228-265, looked up)
chain: NSLSLSERVAIIKGTYEPDEDWEEQREERKKTMELTTR
notes: aquaporin 5, human, C-terminal tail, residues 228-265; Cloned into pET41a (SpeI, AvrII) with a thrombin site (LVPRGS) between GST and the AQP5 C-terminus; also called AQP5 C-terminal peptide; AQP5 C-terminus; source: E. coli BL21*, GST fusion purified (GSTrap), cleaved with thrombin, separated from GST
B2: full-length human AQP2 (natural protein, UniProt P41181 1-271, looked up)
chain: MWELRSIAFSRAVFAEFLATLLFVFFGLGSALNWPQALPSVLQIAMAFGLGIGTLVQALGHISGAHINPAVTVACLVGCHVSVLRAAFYVAAQLLGAVAGAALLHEITPADIRGDLAVNALSNSTTAGQAVTVELFLTLQLVLCIFASTDERRGENPGTPALSIGFSVALGHLLGIHYTGCSMNPARSLAPAVVTGKFDDHWVFWIGPLVGAILGSLLYNYVLFPPAKSLSERLAVLKGLEPDTDWEEREVRRRQSVELHSPQSLPRGTKA
notes: aquaporin 2, human, full-length, with an uncleavable His-tag attached to the N-terminus; kept in detergent (0.2% NG); The Kd is fitted on the monomeric AQP concentration; also called Aquaporin 2; source: Pichia pastoris, purified (NG-solubilised membranes, HisTrap, SEC); not shown: His-tag, N-terminal, kept
B3: full-length AQP2: human aquaporin 2, recombinantly produced in Pichia pastoris, His-tag at the N-terminus (protein)
chain: B2 chain
modifications: left off: His-tag, N-terminal, kept
notes: human aquaporin 2, recombinantly produced in Pichia pastoris, His-tag at the N-terminus
B4: AQP2 C-terminal tail (residues 227-271) (peptide, UniProt P41181 227-271, looked up)
chain: AKSLSERLAVLKGLEPDTDWEEREVRRRQSVELHSPQSLPRGTKA
notes: aquaporin 2, human, C-terminal tail, residues 227-271; also called AQP2 C-terminal peptide; AQP2 C-terminus; source: E. coli BL21*, GST fusion purified (GSTrap), cleaved with thrombin, separated from GST

What was measured:
[1] = biological target: T1, human ezrin FERM-domain (residues 1–295) (Homo sapiens, UniProt P15311); assay: Microscale thermophoresis (MST), binding to FERM-Alexa488; conditions: Z-test for population means; for Affinity for FERM, full-length AQP compared with its C-terminal tail: significant if p < 0.05
T1 construct: human ezrin FERM-domain (residues 1–295); 8xHis-tag (N); TEV cleavage site (N); made in house; host or cells: E. coli BL21*
T1 sequence (P15311 1-295): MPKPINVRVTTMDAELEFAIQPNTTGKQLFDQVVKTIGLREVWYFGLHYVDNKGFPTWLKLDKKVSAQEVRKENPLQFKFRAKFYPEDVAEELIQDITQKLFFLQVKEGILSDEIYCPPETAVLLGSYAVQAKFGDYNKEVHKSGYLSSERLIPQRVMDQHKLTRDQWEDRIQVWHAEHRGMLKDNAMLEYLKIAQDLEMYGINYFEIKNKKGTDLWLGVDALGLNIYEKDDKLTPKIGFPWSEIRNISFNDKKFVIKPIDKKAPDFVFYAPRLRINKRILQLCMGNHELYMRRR
Procedure: For each AQP, a 1:1 dilution series was made resulting in 12 samples with a concentration range of 0.0419–86.0 μM for AQP2 and 0.029–60.6 μM for AQP5. The samples were mixed with an equal volume of FERM that had been labelled with Alexa-488, transferred to MST capillaries, and MST traces were recorded (Figure S1). From these traces, the difference in normalized fluorescence before and after heating was used to generate a binding curve for each AQP from which the dissociation constant (Kd) could be determined (Figure 3a).
This artefact became even more prominent when the AQP concentration was increased further. As a result, AQP concentrations that would lead to saturation could not be used in the case of AQP5, wherefore the estimated Kd-value should be evaluated with caution.
Next, we set out to investigate if the interaction between FERM and AQP2/AQP5 is mediated by the AQP C-termini as previously proposed. For this purpose, we expressed the AQP2 and AQP5 C-terminal tails (residues 227–271 and 228–265 for AQP2 and AQP5 respectively) as GST-fusion constructs in E. coli. The purified GST-AQP constructs were then cleaved with thrombin, allowing AQP2 and AQP5 C-termini to be separated from the GST-tag. For each AQP C-terminal peptide, a 1:1 dilution series was made resulting in 12 samples for AQP2 (0.072–294.5 μM) and 16 samples (0.001–337.5 μM) for AQP5, mixed with fluorescently labelled FERM, and MST-traces were recorded and analyzed as described above (Figure S1). […] This confirms the C-terminus as the region responsible for the FERM-interaction for both AQP2 and AQP5.
The E. coli codon-optimized gene for the human ezrin FERM-domain (residues 1–295) was synthesized (Genscript, Piscataway, NJ, USA) and cloned into pET15b using the NdeI and BamHI sites. The final construct contained an N-terminal 8xHis-tag followed by a TEV cleavage site. The plasmid was transformed into calcium-competent E. coli cells BL21* by heat shock. 2x1L LB-media supplemented with 100 μg/mL ampicillin was inoculated with a 5 mL overnight culture. […]

Ezrin = conditions: co-IP and PLA, NS-SV-AC cells; ref [31]; cited from earlier work
Excerpt: (§1) Several mammalian AQP isoforms have been proposed to directly interact with Ezrin during trafficking.

[2] = biological target: T2, human ezrin FERM-domain (residues 1-295), labelled with Alexa-488 (human, UniProt P15311 1-295, cysteine-reactive C5 maleimide-Alexa 488 on cysteines); assay: MST; AQP (full-length or C-terminal peptide) in a 1:1 dilution series mixed with FERM-Alexa488 at 0.125 uM (0.129 uM for the AQP5 C-terminus); Monolith NT.115, room temperature, LED and MST power 80%; premium capillaries (full-length AQP) or standard capillaries (peptides); three dilution series; one-to-one binding model on monomeric AQP concentration; conditions: both partners purified
T2 construct: ezrin, human, FERM-domain, residues 1-295; the construct has an N-terminal 8xHis-tag followed by a TEV cleavage site; No TEV cleavage is described in the purification; codon-optimised synthetic gene in pET15b; also called FERM-Alexa488; source: E. coli BL21*, purified (His-trap)
T2 sequence (P15311 1-295): as above

LIP5 = conditions: compared with construct truncated immediately after the amphipathic helix; ref [36] Roche et al., 2017; cited from earlier work
Excerpt: Moreover, introduction of pho ...

Ezrin FERM-domain = conditions: co-IP and pull-down; ref [30]; cited from earlier work
Excerpt: as §1

Row | Molecule | Affinity for FERM, full-length AQP compared with its C-terminal tail [1] | Kd [2] [µM] | further results
1 | CC[C@H](C)[C@H](NC(=O)[C@H](C)NC(=O)[C@@H](NC(=O)[C@H](CCCNC(=N)N)NC(=O)[C@H](CCC(=O)O)NC(=O)[C@H](CO)NC(=O)[C@H](CC(C)C)NC(=O)[C@H](CO)NC(=O)[C@H](CC(C)C)NC(=O)[C@H](CO)NC(=O)[C@H](CC(N)=O)NC(=O)[C@H](CO)NC(=O)CN)C(C)C)C(=O)N[C@H](C(=O)N[C@@H](CCCCN)C(=O)NCC(=O)N[C@H](C(=O)N[C@@H](Cc1ccc(O)cc1)C(=O)N[C@@H](CCC(=O)O)C(=O)N1CCC[C@H]1C(=O)N[C@@H](CC(=O)O)C(=O)N[C@@H](CCC(=O)O)C(=O)N[C@@H](CC(=O)O)C(=O)N[C@@H](Cc1c[nH]c2ccccc12)C(=O)N[C@@H](CCC(=O)O)C(=O)N[C@@H](CCC(=O)O)C(=O)N[C@@H](CCC(N)=O)C(=O)N[C@@H](CCCNC(=N)N)C(=O)N[C@@H](CCC(=O)O)C(=O)N[C@@H](CCC(=O)O)C(=O)N[C@@H](CCCNC(=N)N)C(=O)N[C@@H](CCCCN)C(=O)N[C@@H](CCCCN)C(=O)N[C@H](C(=O)N[C@@H](CCSC)C(=O)N[C@@H](CCC(=O)O)C(=O)N[C@@H](CC(C)C)C(=O)N[C@H](C(=O)N[C@H](C(=O)N[C@@H](CCCNC(=N)N)C(=O)O)[C@@H](C)O)[C@@H](C)O)[C@@H](C)O)[C@@H](C)O)[C@@H](C)CC [AQP5 C-terminal peptide] (H-GSNSLSLSERVAIIKGTYEPDEDWEEQREERKKTMELTTR-OH; N-terminus and C-terminus assumed) | – | – | Affinity for FERM, AQP5 C-terminal peptide compared with AQP2 C-terminal peptide [1]: somewhat higher (p < 0.05)
2 | full-length AQP5: human aquaporin 5, untagged, recombinantly produced in Pichia pastoris | significant difference between full-length AQP5 and the AQP5 C-terminal tail (p < 0.05) | – | Interaction of AQP5 with ezrin (Ezrin): identified an interaction
3 | B1 | – | 2.9 ± 0.89 | –
4 | B2 | – | 7.8 ± 3.8 | –
5 | B3 | highly similar | – | Affinity for LIP5 (LIP5): higher affinity; Interaction of AQP2 C-terminal tail with ezrin FERM-domain (Ezrin FERM-domain): direct interaction
6 | B4 | – | 8.7 ± 2.4 | –
